Laboratory results: article PMC6098134

Target: recombinant basigin (CD147), immunoglobulin domains 1 and 2 of the short isoform (aa 22-205) (UniProt P35613)
Assay: SPR; basigin immobilised on a CM5 chip by amine coupling (950 RU); RH5.1 injected as a two-fold dilution series from 2 µM, 120 s at 30 µL/min, 300 s dissociation; 20 °C; 10 mM HEPES pH 7.4, 150 mM NaCl, 3 mM EDTA, 0.005% Tween-20, 2 mg/mL dextran, 1 mg/mL salmon sperm DNA; kinetic sensorgrams fitted to a global 1:1 model

UniProt P35613, sequence (P35613 other isoform, or with tags, fused parts or gaps): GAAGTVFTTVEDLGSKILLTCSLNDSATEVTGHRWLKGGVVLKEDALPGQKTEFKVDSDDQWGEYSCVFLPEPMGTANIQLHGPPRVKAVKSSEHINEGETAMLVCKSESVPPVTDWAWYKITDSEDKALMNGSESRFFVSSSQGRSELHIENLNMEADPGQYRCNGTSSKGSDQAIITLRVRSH

“RH5.1 protein vaccine (full-length Plasmodium falciparum reticulocyte-binding protein homolog 5, PfRH5, aa E26-Q526, with C-tag) (from UniProt Q8IFM5 26-526) (natural protein)” gave a Kd of 1.2 µM.
